One substance from publication doi:10.1101/2024.06.21.600001 can be followed below.

What is called stoichiometry N is a count of units in the complex or per binding partner.

In this test the target is EBOV GP ectodomain, mucin-like domain deleted (EBOV GP[change] ectodomain), Mayinga, residues 33-651, double Strep-tag (Zaire ebolavirus (EBOV), Mayinga) (UniProt Q05320). The test can be described thus: cryo-EM structure.

“EBOV GP ectodomain, mucin-like domain deleted (EBOV GP[change] ectodomain), Mayinga, residues 33-651, double Strep-tag (from UniProt Q05320 33-651) (domain or fragment)” returned a stoichiometry N of 3.
